Reference: patent publication US20180305451A1
Residue numbers refer to the chain shown, from its start.

B1: αhHIDE1_AbD25754_hIgG1_Ser_mAb (antibody, V domains shown)
VH: QVQLVQSGAEVKKPGASVKVSCKASGYTFSGYGMHWVRQAPGQGLEWMGIISPSNGNTNYAQKFQGRVTMTRDTSISTAYMELSRLRSEDTAVYYCAREVYYGLDVWGQGTLVTVSS
VL: DIQMTQSPSSLSASVGDRVTITCRASQSISSWLNWYQQKPGKAPQLLIYGASSLQSGVPSRFSGSGSGTDFTLTISSLQPEDFATYYCQQYISIPITFGQGTKVEIK
B2: αhHIDE1_AbD25760_hIgG1_Ser_mAb (antibody, V domains shown)
VH: QVQLVQSGAEVKKPGSSVKVSCKASGGTFSDYAINWVRQAPGQGLEWMGGIIPNFGTANYAQKFQGRVTITADESTSTAYMELSSLRSEDTAVYYCARGMRSLGGLSYYFDLWGQGTLVTVSS
VL: B1 VL with S30N, W32Y, Q45K, G50A, S93H, I94Y
B3: αhHIDE1_AbD25755_hIgG1_Ser_mAb (antibody, V domains shown)
VH: QVQLVQSGAEVKKPGSSVKVSCKASGGTFSSYAISWVRQAPGQGLEWMGGIVPKFGTAYYAQKFQGRVTITADESTSTAYMELSSLRSEDTAVYYCARENLVYSAIAIWGQGTLVTVSS
VL: B1 VL with S28D, S31N, Q45K, Y91V, I92T, I94T, I96F

The binders below were run against cyno HIDE1 (cyno) (assay: FACS, Geo mean ratio of HEK293 cells over-expressing cyno HIDE1 to HEK293 empty vector, antibody 10 ug/ml).
cyno HIDE1 (cyno), sequence (chain, as listed by the source limits assumed, form in doubt): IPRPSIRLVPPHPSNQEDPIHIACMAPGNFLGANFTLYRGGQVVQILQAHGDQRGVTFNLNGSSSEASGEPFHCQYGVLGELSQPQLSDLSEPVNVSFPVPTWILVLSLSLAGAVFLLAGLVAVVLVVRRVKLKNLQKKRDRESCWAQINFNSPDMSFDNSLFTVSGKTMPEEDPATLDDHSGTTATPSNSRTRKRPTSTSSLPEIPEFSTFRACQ

Row | rMFI OX/EV, 10ug/ml, cHIDE1 (CR) | Binder
1 | 353 | B1
2 | 132 | B2
3 | 328 | B3
